Reference: patent US8895526B2, “Identification of RNAI targets and use of RNAI for rational therapy of chemotherapy-resistant leukemia and other cancers” (Cold Spring Harbor Laboratory, priority 2009, dated 2014)

Columns and labels:
[1] = test system: immortalized murine embryonic fibroblasts (Mef); assay: Pooled negative selection RNAi screening (deep sequencing); format: cell-based; details: deep sequencing reads, on dox compared to initial representation
From the text: (§1) In addition to the analysis of single shRNAs for inhibitory effects in vitro and in vivo, the combination of tet-on competent cancer models and tet-regulatable shRNA expression vectors allowing for monitoring shRNA expression through fluorescent and other reporter genes (e.g. TRMPV and derivates) facilitates pooled shRNA negative selection screening (FIG. 37). In such approaches a pool of over 1,000 shRNAs are retrovirally transduced into tet-on competent cancer models (here MLL/AF9+Nras AML) and selected for shRNA containing cells by either drug selection (e.g. G418) or fluorescence-activated cell sorting (FACS). Selected cell populations harboring a library of shRNAs then can be cultured in the absence or presence of doxycyline (off dox and on dox, respectively) or injected into syngeneic recipient mice that are either treated with doxycyline or left untreated.
(§2) The representation of each shRNA within the pool can be effectively assessed by deep sequencing of shRNA cassettes in a given cell population. For this, genomic DNA is extracted from leukemia cells containing the shRNA pool, and the shRNA guide or passenger strand (21-22 target gene specific nucleotides of the shRNA) by PCR using primers specific for common sequences flanking the gene specific part of the shRNA (e.g. miR30 19 nt loop and miR30 common 3′ sequence). The primers also contain 5′-adapters required for deep sequencing (e.g. for Illumina/Solexa sequencing primers are p5+mir3: 5′-[…]-3′ (SEQ ID NO: 215) and p7+Loop: 5′-[…]-3′ (SEQ ID NO: 216)). Deep sequencing is subsequently performed using a primer binding the flanking nucleotide sequence next to the target gene specific part of the shRNA (for Illumina/Solexa platforms the primer is mir30EcoR1Seq: 5′-TAGCCCCTTGAATTCCGA GGCAGTAGGCA-3′ (SEQ ID NO: 217)).
(§3) The use of shRNA vectors that allow for monitoring of shRNA expression through fluorescent and other reporter genes (e.g. TRMPV) in combination with tet-on competent mouse models facilitates the isolation of pure shRNA expressing cell populations (e.g. by FACS, for TRMPV by sorting of Venus/dsRed double positive cells (FIG. 38). This selection of shRNA expressing cells prior to DNA isolation strongly reduces the background caused by cell populations with insufficient shRNA induction, which are predicted to contain genomic representation of the whole shRNA library without shRNA specific shifts in representation. The final readout is based on the comparison of shRNA representation (i.e. deep sequencing read numbers) before the assay (t0) or from cell populations left without doxycycline treatment (off dox) to those where shRNA were induced and cells subsequently sorted for shRNA expressing cells (on dox). shRNA with inhibitory effects are predicted to loose representation (show less reads) on dox compared to t0 and off dox.
(§4) This pooled is RNAi screening strategy can be applied to rapidly survey inhibitory effects of large pools of shRNAs (˜1000 at a time) in different tet-on competent cancer models and normal control cells (FIG. 39). For example, a pool of 1166 shRNAs targeting 836 predominantly druggable genes associated with MLL fusion proteins in human leukemia and mouse models of MLL/AF9-induced AML (MLL cure library) was analyzed in pooled negative selection screening in tet-on competent MLL/AF9+Nras AML and immortalized murine embryonic fibroblasts (Mef) in parallel. To establish and validate this screening approach, the pool also contained 64 control shRNAs each of which have been previously analyzed for inhibitory effects in both AML cells and Mefs using the same experimental system (FIG. 40).
(§5) After pooling of 1166 experimental and 64 control shRNAs the presence of shRNAs was verified by deep sequencing of shRNAs within the plasmid vector pool (FIG. 41). […]

[2] = test system: tet-on competent MLL/AF9+Nras AML; assay: as above; format: cell-based, mouse; details: deep sequencing reads, On Dox compared to T0
From the text: as §1, §2, §3, §4, §5

Molecule	Fold depletion in Mef [1]	Fold depletion in AML [2]
EG408196.85: shRNA, SEQ ID NO: 116 (nucleic acid) TGCTGTTGACAGTGAGCGCAGCGAGAACCAGTGAGAAATATAGTGAAGCCACAGATGTATATTTCTCACTGGTTCTCGCTTTGCCTACTGCCTCGGA	0.25 Fold	20.79 Fold
Vnn3.345: shRNA, SEQ ID NO: 189 (nucleic acid) TGCTGTTGACAGTGAGCGAACGCCAGAAGATGGAATCTATTAGTGAAGCCACAGATGTAATAGATTCCATCTTCTGGCGTCTGCCTACTGCCTCGGA	2.59 Fold	10.19 Fold
Dio2.2087: shRNA, SEQ ID NO: 112 (nucleic acid) TGCTGTTGACAGTGAGCGCCAGGAATTTGGTTAAATGGAATAGTGAAGCCACAGATGTATTCCATTTAACCAAATTCCTGTTGCCTACTGCCTCGGA	2.52 Fold	20.52 Fold
Gab3.527: shRNA, SEQ ID NO: 125 (nucleic acid) TGCTGTTGACAGTGAGCGCGACGGAAACACTAATAGTGTATAGTGAAGCCACAGATGTATACACTATTAGTGTTTCCGTCATGCCTACTGCCTCGGA	0.46 Fold	10.22 Fold
Centa1.1387: shRNA, SEQ ID NO: 105 (nucleic acid) TGCTGTTGACAGTGAGCGCCAGAACCTCATTAAAGTTGAATAGTGAAGCCACAGATGTATTCAACTTTAATGAGGTTCTGATGCCTACTGCCTCGGA	0.77 Fold	11.44 Fold
Plcb2.3742: shRNA, SEQ ID NO: 167 (nucleic acid) TGCTGTTGACAGTGAGCGCAGGGACCTTAATACTCAGATATAGTGAAGCCACAGATGTATATCTGAGTATTAAGGTCCCTTTGCCTACTGCCTCGGA	2.25 Fold	10.81 Fold
Plod3.3138: shRNA, SEQ ID NO: 169 (nucleic acid) TGCTGTTGACAGTGAGCGACTCAGCCTCACTTTCAATAAATAGTGAAGCCACAGATGTATTTATTGAAAGTGAGGCTGAGGTGCCTACTGCCTCGGA	0.71 Fold	21.28 Fold
Gdi1.1120: shRNA, SEQ ID NO: 129 (nucleic acid) TGCTGTTGACAGTGAGCGCCAACAGGAAGTCAGACATCTATAGTGAAGCCACAGATGTATAGATGTCTGACTTCCTGTTGATGCCTACTGCCTCGGA	1.98 Fold	24.81 Fold
F10.1044: shRNA, SEQ ID NO: 117 (nucleic acid) TGCTGTTGACAGTGAGCGACACCATCTTGAATGAGTTCTATAGTGAAGCCACAGATGTATAGAACTCATTCAAGATGGTGCTGCCTACTGCCTCGGA	1.25 Fold	10.52 Fold
Slc6a13.1196: shRNA, SEQ ID NO: 182 (nucleic acid) TGCTGTTGACAGTGAGCGACTGGGACTAGATAGCCAGTTTTAGTGAAGCCACAGATGTAAAACTGGCTATCTAGTCCCAGGTGCCTACTGCCTCGGA	1.52 Fold	9.77 Fold
Pgam1.1811: shRNA, SEQ ID NO: 164 (nucleic acid) TGCTGTTGACAGTGAGCGCAAGGAGTGATGTGCAATACTTTAGTGAAGCCACAGATGTAAAGTATTGCACATCACTCCTTTTGCCTACTGCCTCGGA	0.17 Fold	20.18 Fold
Hpgd.1070: shRNA, SEQ ID NO: 132 (nucleic acid) TGCTGTTGACAGTGAGCGCAAACTAGGTTATAACCTATAATAGTGAAGCCACAGATGTATTATAGGTTATAACCTAGTTTTTGCCTACTGCCTCGGA	1.10 Fold	10.43 Fold
Park2.2222: shRNA, SEQ ID NO: 158 (nucleic acid) TGCTGTTGACAGTGAGCGCAACAGAGAAAGTGCCTATAAATAGTGAAGCCACAGATGTATTTATAGGCACTTTCTCTGTTATGCCTACTGCCTCGGA	1.32 Fold	11.36 Fold
Plod3.2501: shRNA, SEQ ID NO: 168 (nucleic acid) TGCTGTTGACAGTGAGCGAACCGTTGATATCCACATGAAATAGTGAAGCCACAGATGTATTTCATGTGGATATCAACGGTGTGCCTACTGCCTCGGA	2.62 Fold	12.30 Fold
Slc15a3.1086: shRNA, SEQ ID NO: 180 (nucleic acid) TGCTGTTGACAGTGAGCGCCTGGTTCTATTGGAGCATCAATAGTGAAGCCACAGATGTATTGATGCTCCAATAGAACCAGTTGCCTACTGCCTCGGA	2.32 Fold	10.29 Fold
Flot2.1039: shRNA, SEQ ID NO: 120 (nucleic acid) TGCTGTTGACAGTGAGCGACAAGGTGACATCAGAAGTAAATAGTGAAGCCACAGATGTATTTACTTCTGATGTCACCTTGCTGCCTACTGCCTCGGA	2.72 Fold	10.89 Fold
EG277089.605: shRNA, SEQ ID NO: 115 (nucleic acid) TGCTGTTGACAGTGAGCGCCTCAATCTCATTGGTGGCTTATAGTGAAGCCACAGATGTATAAGCCACCAATGAGATTGAGATGCCTACTGCCTCGGA	2.02 Fold	25.37 Fold
Syt17.721: shRNA, SEQ ID NO: 184 (nucleic acid) TGCTGTTGACAGTGAGCGCCGAGGAGATCATGTCCAAGTATAGTGAAGCCACAGATGTATACTTGGACATGATCTCCTCGTTGCCTACTGCCTCGGA	0.86 Fold	10.25 Fold
Kcnh7.2642: shRNA, SEQ ID NO: 134 (nucleic acid) TGCTGTTGACAGTGAGCGCATGGTTCATCTTTATGCCAAATAGTGAAGCCACAGATGTATTTGGCATAAAGATGAACCATTTGCCTACTGCCTCGGA	0.92 Fold	10.58 Fold
Acsl1.3559: shRNA, SEQ ID NO: 88 (nucleic acid) TGCTGTTGACAGTGAGCGCCAGCATTTCACTTTACTGCAATAGTGAAGCCACAGATGTATTGCAGTAAAGTGAAATGCTGTTGCCTACTGCCTCGGA	1.45 Fold	10.18 Fold
Trpm4.2813: shRNA, SEQ ID NO: 188 (nucleic acid) TGCTGTTGACAGTGAGCGACAAGATTGTCATAGTGAGCAATAGTGAAGCCACAGATGTATTGCTCACTATGACAATCTTGGTGCCTACTGCCTCGGA	2.33 Fold	20.52 Fold
Gdi1.2355: shRNA, SEQ ID NO: 130 (nucleic acid) TGCTGTTGACAGTGAGCGACTCTAGTATATTTCACAGAAATAGTGAAGCCACAGATGTATTTCTGTGAAATATACTAGAGCTGCCTACTGCCTCGGA	2.86 Fold	9.92 Fold
Atp6v0d1.481: shRNA, SEQ ID NO: 93 (nucleic acid) TGCTGTTGACAGTGAGCGACACCAGCGTTCAATAGCTGAATAGTGAAGCCACAGATGTATTCAGCTATTGAACGCTGGTGCTGCCTACTGCCTCGGA	1.90 Fold	12.03 Fold
Ncf1.2370: shRNA, SEQ ID NO: 150 (nucleic acid) TGCTGTTGACAGTGAGCGCCAGAAGATCAATGCACATAAATAGTGAAGCCACAGATGTATTTATGTGCATTGATCTTCTGTTGCCTACTGCCTCGGA	2.33 Fold	10.06 Fold
